According to patent publication EP1988165A1 (THE UNIVERSITY OF NORTH CAROLINA AT CHAPEL HILL, dated 2008):

Assays:
[1] = target: T1, CDC53 fused in-frame with the Gal4 DNA binding domain (pGBT8-CDC53) (yeast; Saccharomyces cerevisiae, UniProt P04386 1-147; Q12018 1-815); assay: yeast two-hybrid, histidine reporter (FIG. 5D)
[2] = target: T2, CUL-B (ORF YGR003w) fused in-frame with the Gal4 DNA binding domain (pGBT8) (yeast; Saccharomyces cerevisiae, UniProt P04386 1-147; P53202 1-744); assay: yeast two-hybrid, histidine reporter (FIG. 5D)
[3] = target: T3, CUL-C (ORF YJL047c) fused in-frame with the Gal4 DNA binding domain (pGBT8) (yeast; Saccharomyces cerevisiae, UniProt P04386 1-147; P47050 1-842); assay: yeast two-hybrid, histidine reporter (FIG. 5D)
[4] = target: T1, CDC53 fused in-frame with the Gal4 DNA …; assay: yeast two-hybrid (FIG. 5D)
[5] = target: T2, CUL-B (ORF YGR003w) fused in-frame with …; assay: yeast two-hybrid (FIG. 5D)
[6] = target: T3, CUL-C (ORF YJL047c) fused in-frame with …; assay: yeast two-hybrid (FIG. 5D)
[7] = target: human ROC1, untagged (endogenous in HeLa and Saos-2 cells, or in vitro translated) (human, UniProt P62877 1-108); assay: immunopurification of ROC1 immunocomplexes from HeLa cells and protein microsequencing
[8] = target: T4, mouse APC2 fused to the Gal4 DNA binding domain (yeast; mouse, UniProt P04386 1-147; Q8BZQ7 15-837, limits assumed); assay: yeast two-hybrid, -LWH medium with 5 mM 3-AT (FIG. 4E)
T4 construct: also called GAL4BD-APC2

[9] = target: T5, HA-epitope tagged human ROC1 (human, UniProt P62877 1-108); assay: co-immunoprecipitation with anti-HA from [35S]-methionine labeled transfected cells (FIG. 3A)
T5 construct: Expressed by transfection in mammalian cells (Saos-2, HeLa, 293T); also called HA-ROC1

[10] = target: T6, ScAPC2 fused in-frame with the GAL4 activation domain (yeast; Saccharomyces cerevisiae, UniProt Q12440 1-853); assay: yeast two-hybrid (FIG. 5D)
T6 construct: also called yeast APC2
T6 sequence (looked up): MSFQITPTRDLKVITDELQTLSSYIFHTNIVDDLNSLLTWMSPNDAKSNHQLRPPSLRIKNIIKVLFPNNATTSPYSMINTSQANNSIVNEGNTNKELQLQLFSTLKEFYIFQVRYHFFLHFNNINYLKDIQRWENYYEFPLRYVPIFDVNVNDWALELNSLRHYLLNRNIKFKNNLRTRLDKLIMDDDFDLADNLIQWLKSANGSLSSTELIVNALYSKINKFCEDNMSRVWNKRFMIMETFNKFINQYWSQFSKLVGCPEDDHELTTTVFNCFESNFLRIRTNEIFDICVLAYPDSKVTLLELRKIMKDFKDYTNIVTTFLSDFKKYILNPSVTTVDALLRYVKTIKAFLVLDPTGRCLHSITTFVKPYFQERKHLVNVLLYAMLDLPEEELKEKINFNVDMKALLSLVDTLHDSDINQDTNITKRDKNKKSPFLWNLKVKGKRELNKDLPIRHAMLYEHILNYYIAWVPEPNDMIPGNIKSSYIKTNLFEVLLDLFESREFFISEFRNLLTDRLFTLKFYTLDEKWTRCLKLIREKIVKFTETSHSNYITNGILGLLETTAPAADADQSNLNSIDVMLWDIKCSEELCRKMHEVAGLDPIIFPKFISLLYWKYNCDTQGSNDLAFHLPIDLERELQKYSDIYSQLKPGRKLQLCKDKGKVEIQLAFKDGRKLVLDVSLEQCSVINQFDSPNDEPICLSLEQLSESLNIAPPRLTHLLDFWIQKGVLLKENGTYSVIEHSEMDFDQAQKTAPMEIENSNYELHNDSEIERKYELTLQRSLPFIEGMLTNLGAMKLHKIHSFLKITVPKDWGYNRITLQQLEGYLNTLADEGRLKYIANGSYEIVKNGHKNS

[11] = target: T7, human ROC1 fused in-frame with the DNA activation domain of Gal4 (pGAD-ROC1) (yeast; human, UniProt P62877 1-108); assay: yeast two-hybrid; library screen with mouse cullin 4A as bait and FIG. 1A
T7 construct: Yeast two-hybrid prey; also called regulator of cullins

myc-epitope tagged APC2 = myc-epitope tagged APC2 (mouse, UniProt Q8BZQ7 15-837, limits assumed); assay: co-immunoprecipitation from transfected HeLa cells
Sequence of myc-epitope tagged APC2 (Q8BZQ7 15-837 limits assumed): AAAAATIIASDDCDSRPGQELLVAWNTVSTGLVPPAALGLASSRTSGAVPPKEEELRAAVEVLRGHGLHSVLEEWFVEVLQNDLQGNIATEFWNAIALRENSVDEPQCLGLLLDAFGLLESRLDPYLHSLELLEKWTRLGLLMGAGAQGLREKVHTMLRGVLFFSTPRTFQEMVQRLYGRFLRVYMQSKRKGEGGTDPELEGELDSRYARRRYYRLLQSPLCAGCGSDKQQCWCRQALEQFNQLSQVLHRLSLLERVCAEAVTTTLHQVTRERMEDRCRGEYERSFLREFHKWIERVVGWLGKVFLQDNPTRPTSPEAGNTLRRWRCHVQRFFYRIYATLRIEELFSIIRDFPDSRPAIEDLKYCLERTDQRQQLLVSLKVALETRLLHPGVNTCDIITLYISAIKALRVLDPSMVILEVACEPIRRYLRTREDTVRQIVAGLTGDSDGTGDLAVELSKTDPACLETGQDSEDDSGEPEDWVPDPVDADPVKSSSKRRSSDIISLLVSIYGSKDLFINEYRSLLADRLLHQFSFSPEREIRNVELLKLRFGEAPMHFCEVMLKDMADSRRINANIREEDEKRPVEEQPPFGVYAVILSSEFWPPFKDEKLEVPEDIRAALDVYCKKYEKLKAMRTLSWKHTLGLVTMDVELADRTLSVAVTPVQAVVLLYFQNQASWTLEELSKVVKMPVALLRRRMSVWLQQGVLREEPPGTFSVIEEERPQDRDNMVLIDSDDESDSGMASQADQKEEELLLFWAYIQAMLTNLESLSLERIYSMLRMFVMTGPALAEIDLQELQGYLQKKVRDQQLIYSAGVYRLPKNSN

T7 sequence (P62877 whole entry, the tested form may be a part): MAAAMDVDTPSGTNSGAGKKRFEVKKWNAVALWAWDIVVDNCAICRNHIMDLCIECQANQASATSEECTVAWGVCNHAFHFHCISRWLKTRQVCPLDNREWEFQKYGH
T5 sequence (P62877 whole entry): as the sequence (P62877 whole entry, the tested form may be a part) above
Sequence of human ROC1, untagged (endogenous in HeLa and Saos-2 cells, or in vitro translated) (P62877 whole entry, the tested form may be a part): as above

B1: ScAPC11 fused in-frame with the GAL4 activation domain (pGAD) (other, Saccharomyces cerevisiae, UniProt Q12157 1-165, looked up, not shown: large carriers)
chain: MKVKINEVHSVFAWSWHIPSTSDEDAANNDPIGNDEDEDVCGICRASYNGTCPSCKFPGDQCPLVIGLCHHNFHDHCIYRWLDTPTSKGLCPMCRQTFQLQKGLAINDAHVQKFVEIVSRRREEMIEEGVAEEFVDFDEPIRQNTDNPIGRQQVDTILDEDFLLR
notes: also called yeast APC11
B1: no binding [1]; no binding [2]; binds [3].

B2: ScROC1 fused in-frame with the GAL4 activation domain (pGAD-ScROC1) (other, Saccharomyces cerevisiae, UniProt Q08273 1-121, looked up, not shown: large carriers)
chain: MSNEVDRMDVDEDESQNIAQSSNQSAPVETKKKRFEIKKWTAVAFWSWDIAVDNCAICRNHIMEPCIECQPKAMTDTDNECVAAWGVCNHAFHLHCINKWIKTRDACPLDNQPWQLARCGR
notes: also called yeast ROC1; ROC1p
B2: binds [4]; binds [5]; binds [6].

B3: human CUL2, endogenous in HeLa cells (other, UniProt Q13617 1-745, looked up)
chain: MSLKPRVVDFDETWNKLLTTIKAVVMLEYVERATWNDRFSDIYALCVAYPEPLGERLYTETKIFLENHVRHLHKRVLESEEQVLVMYHRYWEEYSKGADYMDCLYRYLNTQFIKKNKLTEADLQYGYGGVDMNEPLMEIGELALDMWRKLMVEPLQAILIRMLLREIKNDRGGEDPNQKVIHGVINSFVHVEQYKKKFPLKFYQEIFESPFLTETGEYYKQEASNLLQESNCSQYMEKVLGRLKDEEIRCRKYLHPSSYTKVIHECQQRMVADHLQFLHAECHNIIRQEKKNDMANMYVLLRAVSTGLPHMIQELQNHIHDEGLRATSNLTQENMPTLFVESVLEVHGKFVQLINTVLNGDQHFMSALDKALTSVVNYREPKSVCKAPELLAKYCDNLLKKSAKGMTENEVEDRLTSFITVFKYIDDKDVFQKFYARMLAKRLIHGLSMSMDSEEAMINKLKQACGYEFTSKLHRMYTDMSVSADLNNKFNNFIKNQDTVIDLGISFQIYVLQAGAWPLTQAPSSTFAIPQELEKSVQMFELFYSQHFSGRKLTWLHYLCTGEVKMNYLGKPYVAMVTTYQMAVLLAFNNSETVSYKELQDSTQMNEKELTKTIKSLLDVKMINHDSEKEDIDAESSFSLNMNFSSKRTKFKITTSMQKDTPQEMEQTRSAVDEDRKMYLQAAIVRIMKARKVLRHNALIQEVISQSRARFNPSISMIKKCIEVLIDKQYIERSQASADEYSYVA
notes: also called cullin 2
B3: binds [7].

B4: full length human ROC2 fused in-frame with the yeast Gal4 DNA activation domain (other, not shown: large carriers)
chain: MFSLKKWNPVAMWSWDVECDTCAICRVQVMDACLRCQAENKQEDCVVVWGECNHSFHNCCMSLWVKQNNRCPLCQQDWVVQRIGK
notes: Yeast two-hybrid prey
B4: no binding [8].

B5: myc-epitope tagged mouse CUL4A (other, UniProt Q3TCH7 1-759, looked up, not shown: small tags and cut ends)
chain: MADEGPRKGSVSALMGRTNGLTKPAALAGGPAKPGGTGGSRKLVIKNFRDRPRLPDNYTQDTWRKLHEAVKAIQSSTSIRYNLEELYQAVENLCSHKVSPTLYKQLRQVCEDHVQAQILPFREDSLDSVLFLKKINTCWQDHCRQMIMIRSIFLFLDRTYVLQNSMLPSIWDMGLELFRNHIISDRMVQSKTIDGILLLIGRERSGEAVDRSLLRSLLSMLSDLQVYKDSFELKFLEETNCLYAAEGQRLMQDREVPEYLNHVSKRLEEEADRVITYLDHSTQKPLIACVEKQLLGEHLTAILQKGLEHLLDENRVPDLTQMYQLFSRVKGGQHALLQHWSEYIKTFGTTIVINPEKDKDMVQDLLDFKDKVDHVVEVCFQRNERFINLMKESFETFINKRPNKPAELIAKHVDSKLRAGNKEATDEELERILDKIMILFRFIHGKDVFEAFYKKDLAKRLLVGKSASVDAEKSMLSKLKHECGAAFTSKLEGMFKDMELSKDIMVHFKQHMQNQSAPGPIDLTVNILTMGYWPTYTPMEVHLPPEMVRLQEVFKTFYLGKHSGRKLQWQTTLGHAVLKADFKEGKKEFQVSLFQTLVLLMFNEGDGFSFEEIKMATGIEDSELRRTLQSLACGKARVLIKSPKGKEVEDGDKFIFNADFKHKLFRIKINQIQMKETVEEQVSTTERVFQDRQYQIDAAIVRIMKMRKTLGHNLLVSELYNQLKFPVKPGDLKKRIESLIDRDYMERDKDSPNQYHYVA
notes: also called myc-mCUL4A; cullin 4A
B5: binds [9].

B6: ScROC1 fused in-frame with the Gal4 DNA binding domain (pGBT8-ScROC1) (other, yeast;Saccharomyces cerevisiae, UniProt P04386 1-147, looked up)
chain: MKLLSSIEQACDICRLKKLKCSKEKPKCAKCLKNNWECRYSPKTKRSPLTRAHLTEVESRLERLEQLFLLIFPREDLDMILKMDSLQDIKALLTGLFVQDNVNKDAVTDRLASVETDMPLTLRQHRISATSSSEESSNKGQRQLTVSMSNEVDRMDVDEDESQNIAQSSNQSAPVETKKKRFEIKKWTAVAFWSWDIAVDNCAICRNHIMEPCIECQPKAMTDTDNECVAAWGVCNHAFHLHCINKWIKTRDACPLDNQPWQLARCGR
B6: binds [10].

B7: full-length mouse cullin 4A fused in frame with the DNA-binding domain of Gal4 (other, yeast;mouse, UniProt P04386 1-147, looked up)
chain: MKLLSSIEQACDICRLKKLKCSKEKPKCAKCLKNNWECRYSPKTKRSPLTRAHLTEVESRLERLEQLFLLIFPREDLDMILKMDSLQDIKALLTGLFVQDNVNKDAVTDRLASVETDMPLTLRQHRISATSSSEESSNKGQRQLTVSMADEGPRKGSVSALMGRTNGLTKPAALAGGPAKPGGTGGSRKLVIKNFRDRPRLPDNYTQDTWRKLHEAVKAIQSSTSIRYNLEELYQAVENLCSHKVSPTLYKQLRQVCEDHVQAQILPFREDSLDSVLFLKKINTCWQDHCRQMIMIRSIFLFLDRTYVLQNSMLPSIWDMGLELFRNHIISDRMVQSKTIDGILLLIGRERSGEAVDRSLLRSLLSMLSDLQVYKDSFELKFLEETNCLYAAEGQRLMQDREVPEYLNHVSKRLEEEADRVITYLDHSTQKPLIACVEKQLLGEHLTAILQKGLEHLLDENRVPDLTQMYQLFSRVKGGQHALLQHWSEYIKTFGTTIVINPEKDKDMVQDLLDFKDKVDHVVEVCFQRNERFINLMKESFETFINKRPNKPAELIAKHVDSKLRAGNKEATDEELERILDKIMILFRFIHGKDVFEAFYKKDLAKRLLVGKSASVDAEKSMLSKLKHECGAAFTSKLEGMFKDMELSKDIMVHFKQHMQNQSAPGPIDLTVNILTMGYWPTYTPMEVHLPPEMVRLQEVFKTFYLGKHSGRKLQWQTTLGHAVLKADFKEGKKEFQVSLFQTLVLLMFNEGDGFSFEEIKMATGIEDSELRRTLQSLACGKARVLIKSPKGKEVEDGDKFIFNADFKHKLFRIKINQIQMKETVEEQVSTTERVFQDRQYQIDAAIVRIMKMRKTLGHNLLVSELYNQLKFPVKPGDLKKRIESLIDRDYMERDKDSPNQYHYVA
notes: Yeast two-hybrid bait, also used for the library screen; also called mouse CUL4A; CUL4A
B7: binds [11].

B8: HA tagged human ROC2 (other, not shown: small tags and cut ends)
chain: ADVEDGEETCALASHSGSSGSTSGGDKMFSLKKWNPVAMWSWDVECDTCAICRVQVMDACLRCQAENKQEDCVVVWGECNHSFHNCCMSLWVKQNNRCPLCQQDWVVQRIGK
notes: Transfected protein migrates as a doublet; also called HA-ROC2
B8: no binding (myc-epitope tagged APC2).
